{"source": "IntAct's records for PubMed 26656091", "parents": {"B1": {"name": "Adapter molecule crk (Homo sapiens), P46108-1 (parent)", "chain": "MAGNFDSEERSSWYWGRLSRQEAVALLQGQRHGVFLVRDSSTSPGDYVLSVSENSRVSHYIINSSGPRPPVPPSPAQPPPGVSPSRLRIGDQEFDSLPALLEFYKIHYLDTTTLIEPVSRSRQGSGVILRQEEAEYVRALFDFNGNDEEDLPFKKGDILRIRDKPEEQWWNAEDSEGKRGMIPVPYVEKYRPASASVSALIGGNQEGSHPQPLGGPEPGPYAQPSVNTPLPNLQNGPIYARVIQKRVPNAYDKTALALEVGELVKVTKINVSGQWEGECNGKRGHFPFTHVRLLDQQNPDEDFS"}}, "data": [{"variants_of": "B1", "conditions": "with ppia_human PPIA", "values": [{"variant": "P218F", "effect of a mutation on the interaction": "increasing interaction strength"}]}, {"variants_of": "B1", "conditions": "with ppia_human PPIA", "remark": "another data set of the same source", "values": [{"variant": "P220A", "effect of a mutation on the interaction": "disrupting interaction strength"}]}]}
